Measurements published in patent US20170204176A1 (MacroGenics, published 2017).

Key:
[1] = molecular target: T1, His-tagged cynomolgus monkey DR5 (cynomolgus monkey (Macaca fascicularis)); assay: Biacore (SPR); DR5 mAb 4×CD3 mAb 2 diabody with His-tagged cynomolgus monkey DR5
T1 construct: also called His-tagged DR5
Experimental: (§1) Bi-specific DR5×CD3 diabodies were incubated with His-tagged DR5 and the kinetics of binding was determined via Biacore analysis.

histidine tagged TRAIL [2] = molecular target: T2, histidine tagged TRAIL (UniProt P50591 95-281, limits assumed); assay: ELISA; biotinylated DR5 mAb 2 on 1 µg/mL TRAIL-His coat
T2 construct: also called TRAIL-His; TRAIL ligand; not shown: histidine tag

human DR5 = human DR5 (human, UniProt O14763 56-210, limits assumed); assay: titration with fluorescence readout (y axis: Log MFI); the text does not describe the assay format
histidine tagged TRAIL [3] = molecular target: T2, histidine tagged TRAIL; assay: ELISA; biotinylated DR5 mAb 1 on 1 µg/mL TRAIL-His coat
[4] = molecular target: T1, His-tagged cynomolgus monkey DR5; assay: Biacore (SPR); DR5 mAb 2×CD3 mAb 2 diabody with His-tagged cynomolgus monkey DR5
Experimental: as §1

[5] = molecular target: T1, His-tagged cynomolgus monkey DR5; assay: Biacore (SPR); DR5 mAb 3×CD3 mAb 2 diabody with His-tagged cynomolgus monkey DR5
Experimental: as §1

His-tagged human DR5 = molecular target: T3, His-tagged human DR5 (human, UniProt O14763 56-210, limits assumed); assay: Biacore (SPR); DR5 mAb 1×CD3 mAb 2 diabody with His-tagged human DR5
T3 construct: whole precursor entry named; also called His-tagged DR5; not shown: His tag

[6] = molecular target: T1, His-tagged cynomolgus monkey DR5; assay: Biacore (SPR); DR5 mAb 1×CD3 mAb 2 diabody with His-tagged cynomolgus monkey DR5
Experimental: as §1

T3 sequence (O14763 other isoform, or with tags, fused parts or gaps limits assumed): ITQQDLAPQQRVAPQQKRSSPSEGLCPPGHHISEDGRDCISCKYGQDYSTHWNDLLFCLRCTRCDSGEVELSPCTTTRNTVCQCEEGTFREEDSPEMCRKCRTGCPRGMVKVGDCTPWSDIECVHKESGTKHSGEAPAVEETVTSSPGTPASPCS
human DR5, sequence (O14763 other isoform, or with tags, fused parts or gaps limits assumed): as above

B1: DR5 mAb 4×CD3 mAb 2 diabody (bispecific antibody)
chain 1: EIVLTQSPGTLSLSPGERATLSCRASQGISRSYLAWYQQKPGQAPSLLIYGASSRATGIPDRFSGSGSGTDFTLTISRLEPEDFAVYYCQQFGSSPWTFGQGTKVEIKGGGSGGGGEVQLVESGGGLVQPGGSLRLSCAASGFTFSTYAMNWVRQAPGKGLEWVGRIRSKYNNYATYYADSVKGRFTISRDDSKNSLYLQMNSLKTEDTAVYYCVRHGNFGNSYVSWFAYWGQGTLVTVSSASTKGEVAACEKEVAALEKEVAALEKEVAALEK
chain 2: QAVVTQEPSLTVSPGGTVTLTCRSSTGAVTTSNYANWVQQKPGQAPRGLIGGTNKRAPWTPARFSGSLLGGKAALTITGAQAEDEADYYCALWYSNLWVFGGGTKLTVLGGGGSGGGGQVQLQESGPGLVKPSQTLSLTCTVSGGSISSGDYFWSWIRQLPGKGLEWIGHIHNSGTTYYNPSLKSRVTISVDTSKKQFSLRLSSVTAADTAVYYCARDRGGDYYYGMDVWGQGTTVTVSSASTKGKVAACKEKVAALKEKVAALKEKVAALKE
notes: Two-chain bi-specific DR5×CD3 diabody with the VL and VH of conatumumab (DR5 mAb 4); also called conatumumab variable domains
Kd [1]: 16.4 nM

B2: DR5 mAb 2 (antibody, V domains shown)
VH: KVQLQQSGAELVKPGASVKLSCKASGYTFTEYILHWVKQKSGQGLEWIGWFYPGNNNIKYNEKFKDKATLTADKSSSTVYMELSRLTSEDSAVYFCARHEQGPGYFDYWGQGTTLTVSS
VL: DIVMTQSHKFMSTSVGDRVSITCKASQDVNTAVAWYQQKPGQSPKLLIYWASTRHTGVPDRFTGSGSGTDYTLTIKSVQAEDLTLYYCQQHYITPWTFGGGTKLEIK
notes: Murine anti-human DR5 monoclonal antibody; also called anti-human DR5 monoclonal antibody DR5 mAb 2; DR mAb 2
binding result (histidine tagged TRAIL [2]): no binding (tested: 2 µg/mL)

B3: DR5 mAb 1 (antibody, V domains shown)
VH: EVKFLESGGGLVQPGGSLKLSCVASGFDFSRYWMSWVRQAPGKGLEWIGEINPDSNTINYTPSLKDKFIISRDNAKNTLYLQMTKVRSEDTALYYCTRRAYYGNPAWFAYWGQGTLVTVSS
VL: DIVLTQSPASLAVSLGQRATISCRASKSVSSSGYSYMHWYQQKPGQPPKVLIFLSSNLDSGVPARFSGSGSGTDFTLNIHPVEDGDAATYYCQHSRDLPPTFGGGTKLEIK
notes: Murine anti-human DR5 monoclonal antibody; also called anti-human DR5 monoclonal antibody DR5 mAb 1
EC50 (read off the curve) (human DR5): ~1 nM | binding result (histidine tagged TRAIL [3]): no binding (tested: 2 µg/mL)

B4: DR5 mAb 2×CD3 mAb 2 diabody (bispecific antibody)
chain 1: DIVMTQSHKFMSTSVGDRVSITCKASQDVNTAVAWYQQKPGQSPKLLIYWASTRHTGVPDRFTGSGSGTDYTLTIKSVQAEDLTLYYCQQHYITPWTFGGGTKLEIKGGGSGGGGEVQLVESGGGLVQPGGSLRLSCAASGFTFSTYAMNWVRQAPGKGLEWVGRIRSKYNNYATYYADSVKGRFTISRDDSKNSLYLQMNSLKTEDTAVYYCVRHGNFGNSYVSWFAYWGQGTLVTVSSASTKGEVAACEKEVAALEKEVAALEKEVAALEK
chain 2: QAVVTQEPSLTVSPGGTVTLTCRSSTGAVTTSNYANWVQQKPGQAPRGLIGGTNKRAPWTPARFSGSLLGGKAALTITGAQAEDEADYYCALWYSNLWVFGGGTKLTVLGGGGSGGGGKVQLQQSGAELVKPGASVKLSCKASGYTFTEYILHWVKQKSGQGLEWIGWFYPGNNNIKYNEKFKDKATLTADKSSSTVYMELSRLTSEDSAVYFCARHEQGPGYFDYWGQGTTLTVSSASTKGKVAACKEKVAALKEKVAALKEKVAALKE
notes: Two-chain bi-specific DR5×CD3 diabody
Kd [4]: 0.42 nM

B5: DR5 mAb 3×CD3 mAb 2 diabody (bispecific antibody)
chain 1: SELTQDPAVSVALGQTVRITCSGDSLRSYYASWYQQKPGQAPVLVIYGANNRPSGIPDRFSGSSSGNTASLTITGAQAEDEADYYCNSADSSGNHVVFGGGTKLTVLGGGGSGGGGEVQLVESGGGLVQPGGSLRLSCAASGFTFSTYAMNWVRQAPGKGLEWVGRIRSKYNNYATYYADSVKGRFTISRDDSKNSLYLQMNSLKTEDTAVYYCVRHGNFGNSYVSWFAYWGQGTLVTVSSASTKGEVAACEKEVAALEKEVAALEKEVAALEK
chain 2: QAVVTQEPSLTVSPGGTVTLTCRSSTGAVTTSNYANWVQQKPGQAPRGLIGGTNKRAPWTPARFSGSLLGGKAALTITGAQAEDEADYYCALWYSNLWVFGGGTKLTVLGGGGSGGGGEVQLVQSGGGVERPGGSLRLSCAASGFTFDDYAMSWVRQAPGKGLEWVSGINWQGGSTGYADSVKGRVTISRDNAKNSLYLQMNSLRAEDTAVYYCAKILGAGRGWYFDYWGKGTTVTVSSASTKGKVAACKEKVAALKEKVAALKEKVAALKE
notes: Two-chain bi-specific DR5×CD3 diabody with the VL and VH of drozitumab (DR5 mAb 3); also called drozitumab variable domains
Kd [5]: 13.3 nM

B6: DR5 mAb 1×CD3 mAb 2 diabody (bispecific antibody)
chain 1: DIVLTQSPASLAVSLGQRATISCRASKSVSSSGYSYMHWYQQKPGQPPKVLIFLSSNLDSGVPARFSGSGSGTDFTLNIHPVEDGDAATYYCQHSRDLPPTFGGGTKLEIKGGGSGGGGEVQLVESGGGLVQPGGSLRLSCAASGFTFSTYAMNWVRQAPGKGLEWVGRIRSKYNNYATYYADSVKGRFTISRDDSKNSLYLQMNSLKTEDTAVYYCVRHGNFGNSYVSWFAYWGQGTLVTVSSASTKGEVAACEKEVAALEKEVAALEKEVAALEK
chain 2: QAVVTQEPSLTVSPGGTVTLTCRSSTGAVTTSNYANWVQQKPGQAPRGLIGGTNKRAPWTPARFSGSLLGGKAALTITGAQAEDEADYYCALWYSNLWVFGGGTKLTVLGGGGSGGGGEVKFLESGGGLVQPGGSLKLSCVASGFDFSRYWMSWVRQAPGKGLEWIGEINPDSNTINYTPSLKDKFIISRDNAKNTLYLQMTKVRSEDTALYYCTRRAYYGNPAWFAYWGQGTLVTVSAASTKGKVAACKEKVAALKEKVAALKEKVAALKE
notes: as for B4
Kd (His-tagged human DR5): 0.14 nM | Kd [6]: 32.5 nM
